24 sequences from the DeepSol protein solubility set can be followed below.

A short description of this series: soluble on expression in E. coli; label from the status in PepcDB or PDB records.
As for “MSLKYEKIAFFRFFGRLNDFFRNSERIKTHRFTGFQTVKDRIEALGVPHVEVSLITLNGKPVGFDHMVEDGELFFVYPEFQNIEIPEDWLVTPRYIGEPRFVLDIHLGKLARLLRMLGFEAVFGEESDEKLCWMAVKKKAILLSRDTGLLKRKELVFGYYVRNTDPKEQLVEVVERYDLKKWMKPFTRCIECGVELEEVPKEAVKNRVPPKVYGFFNEFARCPVCGRIYWKGSHYDHMVEFIKSNINKGEGHHHHHH”, the “soluble on expression in E. coli” value is given as “soluble”.

In the case of “MSLNKKIEELNKLDKKVVLAPMAGITDGDFCRKFKDLFAIVTIGGYNLDSATYKASRDIEKRGRKEFSINLEEFNSYIIEQIKKARESNALVSVNVRFVDIDEAYDKLLTIAKHADIIELNCHCRQPEITSLGIGQELMKNKNLLKEFLTKMKELNKPIFLKIRLNCIPLKELIDNLNYVRDYFDGLHVDCFYPGKPYADMDSLKILAEEFNDKIIIGNNSIDSIEKAKEMLKYSDFVSVARTILKGNVEWIKELNKENIEGHHHHHH”, the “soluble on expression in E. coli” value is recorded as “soluble”.

On to “MREVKLVTFDVWNTLLDLNIMLDEFSHQLAKISGLHIKDVANAVIEVRNEIKKMRAQASEDPRKVLTGSQEALAGKLKVDVELVKRATARAILNVDESLVLEGTKEALQFVKERGLKTAVIGNVMFWPGSYTRLLLERFGLMEFIDKTFFADEVLSYKPRKEMFEKVLNSFEVKPEESLHIGDTYAEDYQGARKVGMWAVWINQEGDKVRKLEERGFEIPSIANLKDVIELISKT”, for which the “soluble on expression in E. coli” value was “soluble”.

For the sequence “MSFFKKLKEKISKQTDTVTEKFKQGLEKTRNSFADKVNDLVFRYRKVDEDFFEELEEILIGADVGVSTVMELIDQLKEEVQRRNIQDPREVQAVISEKLIEIYKGDSDFTNEVNMQKDGLTVVLFVGVNGVGKTTTIGKMAHKFKSEGKSVLLAAGDTFRAGAIEQLEVWGDRVGVEVIKQGSGSDPAAVMYDAVQAAKARNVDVLLCDTAGRLQNKVNLMKELEKVKRVIEREVPGAPHEVLLVIDATTGQNGLSQAKTFREATNVTGIVLTKLDGTAKGGIVLAIRNEMDVPVKFVGLGEQMDDLQQFDPEQYVYGLFANLVETEEV”, the “soluble on expression in E. coli” value is given as “not soluble”.

Take “FSNAPISAEEQMIRAFVKSVEYMSPRKIGALVAIQRVRTLQEYISTGIPLDAKISAELLINIFIPNTPLHDGAVIIKEERIAVTSAYLPLTKNTGISKEFGTRHRAAIGLSEVSDALTFVVSEETGGISITYNGRFKHNL”: the “soluble on expression in E. coli” value was “not soluble”.

“MRTLKIEPLTKEAFAPFGDVIETAGSDYFMINNGSTRRYHKLATVETAQPEDNAIISIFSAEKLEMPLRIRMLERHPLGSQAFIPLLGNPFLVVVAPLGDVPVPGLVRAFLTNGRQGVNYHRGVWHHPVLTIEKRDDFLVVDRSGSGNNCDEHFFTEDEQLLLDPQSNQLEHHHHHH”: the “soluble on expression in E. coli” value was “not soluble”.

“MNAGILGVGKYVPEKIVTNFDLEKIMDTSDEWIRTRTGIEERRIARDDEYTHDLAYEAAKVAIKNAGLTPDDIDLFIVATVTQEATFPSVANIIQDRLGAKNAAGMDVEAACAGFTFGVVTAAQFIKTGAYKNIVVVGADKLSKITNWDDRTTAVLFGDGAGAVVMGPVSDDHGLLSFDLGSDGSGGKYLNLDENKKIYMNGREVFRFAVRQMGEASLRVLERAGLEKEDLDLLIPHQANIRIMEASRERLNLPEEKLMKTVHKYGNTSSSSIALALVDAVEEGRIKDNDNVLLVGFGGGLTWGALIIRWGK”: the “soluble on expression in E. coli” value was “not soluble”.

For “MSLQDDDFSLFKSEMRGVKRISVDRADTGKPRNDRQQLKQRQLNASVRNDEIRVDGLSDQFVIDVGPEDELSWARDGVQESQLRKLKQGLVPFDGSLDLHGMSVEKARQTLWDFLAEATRLEIRCVRVTHGKAARKDGRSPLVKSHVNTWLRQHPQVLGFTSCLPRHGGTGSVYVMLRRTMLEGRDEEGHHHHHH”, the “soluble on expression in E. coli” value is reported as “soluble”.

Regarding “MRGSHHHHHHGSRSSKNVIKEFMRFKVRMEGTVNGHEFEIEGEGEGRPYEGHNTVKLKVTKGGPLPFAWDILSPQFQYGSKVYVKHPADIPDYKKLSFPEGFKWERVMNFEDGGVVTVTQDSSLQDGCFIYKVKFIGVNFPSDGPVMQKKTMGWEASTERLYPRDGVLKGEIHKALKLKDGGHYLVEFKSIYMAKKPVQLPGYYYVDSKLDITSHNEDYTIVEQYERTEGRHHLFL”, the “soluble on expression in E. coli” value is recorded as “soluble”.

Turning to “MSPVAAMKRKNGVALWRQIADRIRGEIAAGDHDETGMLPPEMTLAEKFGVNRHTVRSAIAALASEGILEPMQGRGTMIARKERLSFPISLRTRFTAGIGDQVKEMEALLLSHTTEPASADLAARLQLPSGAPLVRLETLRKADTRPVSRSTTWFPADRFAGIGEAYRKSGSITAAFKALGVADYVRISTVISAIHADTQDLADLELSPGAILLVTQALNADMDGVPVQYAVSRFSADTVEFTVEN”, the “soluble on expression in E. coli” value is on record as “not soluble”.

Turning to “MTGAATAAENSATQLEFYRKALNFNVIGRYDPKIKQLLFHTPHASLYKWDFKKDEWNKLEYQGVLAIYLRDVSQNTNLLPVSPQEVDIFDSQNGSNNIQVNNGSDNSNRNSSGNGNSYKSNDSLTYNCGKTLSGKDIYNYGLIILNRINPDNFSMGIVPNSVVNKRKVFNAEEDTLNPLECMGVEVKDELVIIKNLKHEVYGIWIHTVSDRQNIYELIKYLLENEPKDSFA”, the “soluble on expression in E. coli” value is listed as “soluble”.

With “GSHMRKIQRYVRKDGKCNVHHGNVREKRAETLVFSTHAVISMRDGKLCLMFRVGDLRNSHIVEASIRAKLIKSKQTSEGEFIPLNQTDINVGYYTGDDRLFLVSPLIISHEINQQSPFWEISKAQLPKEELEIVVILEGMVEATGMTCQARSSYITSEILWGYRFTPVLTLEDGFYEVDYNSFHETYETSTPSLSAKELAELANRAEV”, the “soluble on expression in E. coli” value is given as “soluble”.

“MGGSHHHHHHGMASALDCCTENACSKPDDDILDIPLDDPGANAAAAKIQASFRGHMARKKIKSGERGRKGPGPGGPGGAGVARGGAGGGPSGD”: the “soluble on expression in E. coli” value is reported as “not soluble”.

Turning to “MVDIVKRRDWEKKEKKKIAIERIDTLFTLAERVARYSPDLAKRYVELALEIQKKAKVKIPRKWKRRYCKRCHTFLIPGVNARVRLRTKRMPHVVITCLECGYIMRYPYLREVKQKRKKAT”, the “soluble on expression in E. coli” value was “soluble”.

For the sequence “MAHHHHHHMSFKPKIIVCSSPAELSGVACKKIVDIIHASERTNWPLSIALSGGSTPKMLYSRLHEEHLHLLKEERALRFFFGDERLVPADAAESNYNMARQALLHDIPEDLVVPVDVGCVGEVSNVACNDAVKAADAYEKRIDLLLGTQKVEGMEAEIPVFDIVLLGLGSDGHTASIFHGSQAESEMHRAVSVGFPSPTMSPKVWRVTLTPITIIHARHVILLATGKEKKCVLNGIIADTPTEVPVSRFLRNCKGDVTFILDREIAENLTC”, the “soluble on expression in E. coli” value was “soluble”.

Consider “MALLQISEPGLSAAPHQRRLAAGIDLGTTNSLVATVRSGQAETLPDHEGRHLLPSVVHYQQQGHTVGYAARDNAAQDTANTISSVKRMMGRSLADIQTRYPHLPYRFKASVNGLPMIDTAAGLLNPVRVSADILKALAARASESLSGELDGVVITVPAYFDDAQRQGTKDAARLAGLHVLRLLNEPTAAAIAYGLDSGKEGVIAVYDLGGGTFDISILRLSRGVFEVLATGGDSALGGDDFDHLLADYIREQAGIADRSDNRVQRELLDAAIAAKIALSDADTVRVNVAGWQGEITREQFNDLISALVKRTLLACRRALKDAGVEPQDVLEVVMVGGSTRVPLVRERVGEFFGRTPLTAIDPDKVVAIGAAIQADILVGNKPDSEMLLLDVIPLSLGLETMGGLVEKVIPRNTTIPVARAQDFTTFKDGQTAMSIHVMQGERELVQDCRSLARFALRGIPPLPAGGAHIRVTFQVDADGLLSVTAMEKSTGVEASIQVKPSYGLTDGEIASMIKDSMSFAEQDVKARMLAEQKVEAARVLESLTGALTADAALLSAAERQCIDDAAAHLSAVAQGDDVDAIEQAIKNVDKQTQEFAARRMDQSVRRALKGHSVDEV”, for which the “soluble on expression in E. coli” value was “not soluble”.

Take “MPCVFQIWEKGMEKQEIGIYGREKMFMRKKENELQIDWKHFYLGVLALVIPMALQNLINVGVTAADVVMLGRVGETALSGSSLAGQVQY”: the “soluble on expression in E. coli” value was “not soluble”.

“MARTIPVLEIFGPTIQGEGMVIGQKTMFVRTAGCDYRCRWCDSAFTWDGSAKDEIEQLTADEIWRRLEAIGGRRFRHVTISGGNPLLIAALGELIALLHEKGMRVAVETQGSRWQDWLLDIDDVTLSPKPPSSGMDTDWSALDQIIERLQADQSRVRRISLKVVVFDDADLAYAKEVHCRYPGVPFYLQTGNADVADSDVDALRAKLLSRLEWLVEQAADSEELADVHILPQLHTLLWGNKRGV”: the “soluble on expression in E. coli” value was “not soluble”.

Consider “GPGSMKKFMLNTKASLGLVGEKTVDEDYNKRSASLKALNEALNEYSTAMDKAKHAMREVMHSLGKASKAFEKLNSGSCIPEPLKDFSEDFKKAIEHLQQYALQEFMNTMETTVIKTGHAIRADYEECVRVDQQRQKTVNEYDVYRSAVDKKETEYAKKGKDLKESKTYEEDTKTRDELKADYEASDKLFKSSHDALESNVVSKGRLCMREFFCCTSEFLSALSTEMKRLHEKSLLLGA”, for which the “soluble on expression in E. coli” value is reported as “not soluble”.

As to “ATALQCFCHLCTKDNFTCVTDGLCFVSVTETTDKVIHNSMCIAEIDLIPRDRPFVCAPSSKTGSVTTTYCCNQDHCNKIELPTTV”, the “soluble on expression in E. coli” value is recorded as “soluble”.

In the case of “MSLSTEPLASRMRPKNIDEIISQQHLVGPRGIIRRMVDTKKLTSMIFYGPPGIGKTSIAKAISGSTQYKFRQLNAVTNTKKDMQLVVEEAKMSGQVILLLDEIHRLDKAKQDFLLPHLENGKIVLIGATTSNPYHAINPAIRSRAQIFELYPLNDEDVRQALTRAIEDDENGLKTYQPKIDEDAMTYFSTQSQGDVRSALNALELAVLSADNDKDGYRHVTLQDAKDCLQKGAFVSDKDGDMHYDVMSAFQKSIRGSDVNAALHYLARLIEAGDLPTIVRRLLVISYEDIGLASPNAGQRTLAAIESAERLGLPEARIPLSQAVIELCLSPKSNSAMSAIDSALSDIRNGHVGQIPNHLKDGHYQGAKDLGRSIGYKYPHQYVNGYVSQQYLPDKLKNKIYYEPKTTSKSEQQLKEIYNNLLKEGHHHHHH”, the “soluble on expression in E. coli” value is recorded as “soluble”.

As to “MEKIVVIKYKDIKLKSPILIGGLPGIGNVGKIAADYIVEKLNMTKMYDIFSQYLPPQVFINDDSVVHLVRNSIYYKKMRGKHDLVILAGDFQGTTQEAQYELSYQVLQIAKEIGVSMIYTLGGYSIGKIVDKPRVLGAVTDKNLVADLEKNGVVFPKGEPGGGIVGSAGLILGLGMELFNMNGACLMGETSGYFADPKSAMEVLNVLQRQLGIKIDMSDIETRSKQIEQITGKMAEEFQNKQNKEDLGYFG”, the “soluble on expression in E. coli” value was “soluble”.

Turning to “MGSDKIHHHHHHMSIKSDKWIRRMAAQHGMIEPFEPNPIRQVNGEKIVSYGTSSYGYDIRCADEFKVFTNINSTIVDPKNFDPNSFVEFKNDFCIIPPNSFALARTVEYFRIPRSVLTVCLGKSTYARCGIIVNVTPFEPEWEGYVTLEFSNTTPLPAKIYAGEGCAQVLFFESDEECEISYKDRGGKYQGQVGVTLPKI”, the “soluble on expression in E. coli” value is reported as “not soluble”.

In the case of “MAPRTYASVLTTPRGPAPLALYCPEAPECPKLEAISNLSFQQITQQAGTSNDQGFEFENTYVEHRINQEIESFVDTHHQEPLRKAAAQFRAVMKQEYPDSTCFITGSYPAGVDIFSSDIDFTVKVPTLEGANPFLKLMQLRKELSCYYTIFSKAYVQKGNIPVLQLMHAETKVSIDVTIDNDTSKRNTQLLAFYSQLDTRFPLLCKAMKAWAASCGVEGASRGRLNSFSLCLMLIHYLQTVQVLLNIQEIFPELNGDIVVEDDNYMKRDLKIEILEKGAFDFNQNTSSLAVLFIGFMKYYSEFNFKWNWISIKHGNVLKKKWSKTRVPKNGMPKDCRFIVVADPLLEIPRNCAGTVRQQNYMERIQLEFREEYERILKRKTIFNLYQCNWSRKLRKEGMERDLQIMILQDELRKLRIANLPTEEEVPWGTVVDFTSPRTFSPTNQHPKVFWCSEQTTENQRRDNLWPELLRTNPYAIFENLI”, the “soluble on expression in E. coli” value is “soluble”.
